Assay: yeast display, Sf9 membrane polyspecificity reagent, FACS + sequencing; frameworks hold sequencing errors
Summary of the method: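 A synthetic nanobody library was expressed on Saccharomyces cerevisiae BJ5465 by galactose induction for 36–48 hours. The library was stained for 1 hour at 4 °C with 10% biotinylated, detergent-solubilized Sf9 membrane reagent and enriched with streptavidin microbeads before FACS. Low and high (top ~1%) gates were set on anti-HA fluorescence for expression and streptavidin fluorescence for reagent binding, and each polyreactivity label reflects the gate of origin.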

Row | Sequence | polyreactivity (PSR sort gate)
1 | QDQHVESGGGLVQAGGSLRLSFAASGRIFRYYAMRWYRQAPGKDRELVAAIRWTAGSTYYADSVKVRFTISRDNAKNTVYLQMNSLKPEDPAVYYCATDVWKYGRYEYWVQGTQVTVSS | low polyreactivity
2 | QVQLVESGGGLVQAGGSLRLSCAASGNTFSVYAMGWYRQAPGKERELVAGITTSGGSTYYADSVKGRFTISRDNAKNTVYLQMNSLKPEDTAVYYCATDISTSYYYQYSSFYQYDSWGQGTQVTVSS | low polyreactivity
3 | QVQLVESGGGLVQAGGSLRLSCAASGSIFRPYAMGWYRQAPGKERELVAGITWGGSRTYYADSVKGRFTISRDNAKNTVYLQMNSLKPEDTAVYYCAAYPSTNGYIYYYWGQGSQVTVSS | high polyreactivity
4 | QVQLVESGGGLVQAGGSLRLSCAASGSIFPGYTMGWYRQAPGKESELVAAITSSGGSTYYADSVKGRITISRDNAKNTVYLQMNSLKPEDTSVYYCAADTTNYFVPFDYWGLGTQVTVSS | low polyreactivity
5 | QVQLVESGGGLVQAGGSLRLSCAASGRIFESYAMGWYRQAPGKERELVAAISSGGGTTYYADSVKGRFTISRDNAKNTVYLQMNSLKPEDTAVYYCAADALSDEYDYWGQGTQVTVSS | low polyreactivity
6 | QVQLVESGGGLVQAGGSLRLSCAASGSTFTVNGMGWYRQAPGKERELVASITWSGGSTYYADSVKGRFTISRDNAKNTVYLLMNSLKPEDTAVYYCAADEKLYITGYDYWGHGTQVTVSS | low polyreactivity
7 | QVQLVESGGGLVQAGGSLRLICAASGRIFGLYAMGWYRQAPGKERELVAGITYSGGTTYYADSVKGRFPISRDNAKNTVYLQMNSLKPEDTAVYYCNKRWYYQYGQSHVRLYDYWGQGTQVTVSS | high polyreactivity
8 | QVQLVESGGGLVQAGGSLRLSCAASGSIFGDNAMGWYRQAPGKERELVAAISGSTGSTNYADSVKGRFTISRDNAKNTVYLQMNSLKPEDTAVYYCNVGGLEYFVFKGVSVPDDYWGQGTQVTVSS | low polyreactivity
9 | QVQLVESGGGLVQAGGSLRLSCAASGSIFLFNTMGWYRQAPGKERELVAVISRGGITYYADSVKGRFTISRDNAKNTVYLQMNSLKPEDTAVYYCAADGGYWSQYDYWGQGTQVTVSS | low polyreactivity
10 | QVQLVESWGGLVQAGGSLRLSCAASGINFWVYAMGWYRQAPGQERELVAAISRRGGSTSYADSVKGRFTISRDNAKNTVYLQMKSLKPEDTAVYFCAATTYTHPYGYWGQGTQVTVSS | high polyreactivity
11 | QVQLVESGGGLVQAGGSLRLSCAASGSIFKQYAMGWYRQAPGKERELVAAITWRGTGTYYADSVKGRFTISRDNAKNTVYLQMNSLKPEDTAVYYCAAKWYRRTYGYLPYTGIVNYDYWGQGTQVTVSS | high polyreactivity
12 | QVQLVESGGGLVQAGGSLRLSCAASGSTFRIYVMGWYRQAPGKEREFVAAISRGGGSTYYADSVKGRFTISRDNAKNTVYLQMNSLKPEDTAVYYCAAVTRDYGSRSGLDYWGQGTQVTVSS | high polyreactivity
13 | QVQLVESGGGLVQAGGSLRLSCAASGRTFRLYAMGWYRQAPGKERELVAVIRAGDSTNYADSVKGRFTISRDNAKNTVYLQLNSLKPDDTAVSYCAADVLYYYGKYDYWGQGTQVTVSS | high polyreactivity
14 | QVHLVESGGGLVQAGGSLRLSCAASGIIFYFYTMGWYRQAPGKERELVAAISSSGGRTFYADSVKGRFTISRDNAKNTDYLQMNSLKPEDTAVYYCAAAHTREYYWGQGTQVTVSS | high polyreactivity
15 | QVQHVESGGGLVQAGGSLRLSCAASGFIFRYYTMGLYRQAPGKERELVATISNSGRTYYADSVKGRFTISRDNAKNTVYLQMNSLKPEDTAVYYCNALRASTTALWGGYWGQGTQVTVSS | high polyreactivity
16 | QVQLVESGGGLVQAGGSLRLSCAASGRIFNIYAMGWYRQAPGKERELVAAIRWNGGSTYYADSVKGRFTISRDNAKNTVYLQMNSLKPEDTAVYYCAARHPLYRVQHEYWGQGTQVTVSS | low polyreactivity

Row | Sequence | polyreactivity (PSR sort gate)
17 | QVQLVESGGGLVQAGGSLRLSCAASGITFGRKTMGWYRQAPGKERELLAAIDSGGNTYADSVKGRFTISRDNAKNTDYLEMNSLKPEDTAVYYCAVDGGEFYSYGYWGLGTQVTVSS | low polyreactivity
18 | QVQLVESGGGLVQAGGSLRLSCAASGRTFDGYAMGWYRPAPGKERELVAAISWGGGSTYYADSVKGRFTISRDNAKNTVYLQMNSLKPEDTAVYYCNAYTYYYGNDYWGQGTQVNVSS | high polyreactivity
19 | QVQLVESGGGLVQAGGSLRLSCDASGLTFDYNAMGWYRQAPGKERELVAAITWSGGSTYYADSVKGRFTISRDNAKNTVYLQMNSLKPEDTAVYYCARDGVGRGYGYFTPLGYDYWGQGTQVTVSS | low polyreactivity
20 | QVQLVESGGGLVQAGGSLRLSCAASGSTFWVNVMGWYRQAPGKERELVAAITTGSSPYYADSVKGRFTISRDNAKNTVYLQMNSLKPEDTAVYYCNVFQGTRYGYWGQGTQVTVSS | low polyreactivity
21 | QVQLVESGGGLVQAGGSLRLSCAASGYTFGINAMGWYRQAPGKERELVAAITTGGSTNYADSVKGRFTISRDNAKNSVYLQMNSLKPEDTAVYYCNASWDVWNANYWYPGAYYYWGQGTQVTVSS | low polyreactivity
22 | QVQLVESGGGLVQAGGTLRLSCAASGSTFAANAMGWYRQAPGKERELVAAITSSGGSTYYADSVKGRFTISRDNAKNTVYLQMNSLKPEDTAVYYCNTDIERYVRIYDSWGQGTQVTVSS | low polyreactivity
23 | QVQLVESGGGLVQGGGSLRLSCAASGSTIPSYAMGCYRQAPGKERELVASITYSDGTTRYADSVKGRFTISRDHAKNPVYLQMNSLIPEDTELYSCNAVYYREGMDYWGQGTQVTVSS | low polyreactivity
24 | QVQLVESGGGLVQAGGSLRLSCAASGGTFKTNAMGWYRQAPGKERELVAAITGSGTSTYYADSVKGRFTISRDNAKNTVYLQMNSLKPEDTAVYYCAADKLYQPGIGDDYWGQGTQVTVSS | low polyreactivity
25 | QVQLVESGGGLVQAGGSLRLSCAASGRTFTYYAMGWYRPAPGKERELVASISTTGRTYYADSVKGRFTISRDNAKNTVYLQMNSLKPEDTAVYYCATRSRYYYDYWGQGTQVTVSS | high polyreactivity
26 | QVQLQESAGGRQPAPELRGERLYFWLLLMGWYRQAPGEERELVAGINDGASTNYADSVKGRFTISRDNARNTVYLKMNSLKPGDTAVYYCAVWQPVLIWFYYWGQGTQVTVSS | high polyreactivity
27 | QVQLVESGGGLVQAGGSLRLSCAASGSTFGYYTMGWYRQSPGKERELVAAITWRGGRTYYADSVKGRFTISRDNEKNTVYLQMNSLKPEDTAVYYCAARSTVVMDYWGQGTKVTVSS | high polyreactivity
28 | QVQLVESGGGLVQAGGSLRLSCAASGSIFVKYAMGWYRQAPGKERELVAAITTGVGSTYYADSVKGRFTISRDNAKNTVYLQMNSLKPEDTAVYYCAAETIDYWYILEYDYWGQGTQVTVSS | low polyreactivity
29 | QVQLVESVGGLVQAGGSLRLSCAASARIFRYYAMGWDRQAPGKERELVAAITWNGGSTYYADSVKGRFTISRDNAKNTVYVQLNSLKPEDTAVYYCAAVSYYTHYRLPYDYWGQGTQVTVSS | high polyreactivity
30 | QVQLVESGGGLVQAGGSLRLSCAASGGTFGRYAMGWYRQAPGKERELFAAITWGGTRTYYADSVKGRFTISRDNAKNTVYLQMNSLKPEDTAGYYCAAYSNYPVFDYNYWGQGTQVTVSS | high polyreactivity
31 | QVQLVESGGGLVQAGGSLRLSCAASGRTFRGYAMGWYRQAPGKERELVAAITWRGGSTKYADSVKGRFTISRDNAKNTVYLKMNSLKPEDTAVYYCAAARHYLTFWGQGSQVTVSS | high polyreactivity
32 | QVQLVESGGGLVQAGGSLRLSCAASGYTFGSYAMGWYRQAPGKERELVAAITRRGGSTYYADSVKGRFTISRDNAKNTVYLQMTSLKPEDTEVYYCAKRSRDYVSSFLTSHANDYWGQGTQVTVSS | high polyreactivity
